Assay results as given in IntAct's records for PubMed 17954917.

B1: Signal transducer and activator of transcription 3 (Rattus norvegicus (Rat)), P52631 (parent)
chain: MAQWNQLQQLDTRYLEQLHQLYSDSFPMELRQFLAPWIESQDWAYAASKESHATLVFHNLLGEIDQQYSRFLQESNVLYQHNLRRIKQFLQSRYLEKPMEIARIVARCLWEESRLLQTAATAAQQGGQANHPTAAVVTEKQQMLEQHLQDVRKRVQDLEQKMKVVENLQDDFDFNYKTLKSQGDMQDLNGNNQSVTRQKMQQLEQMLTALDQMRRSIVSELAGLLSAMEYVQKTLTDEELADWKRRQQIACIGGPPNICLDRLENWITSLAESQLQTRQQIKKLEELQQKVSYKGDPIVQHRPMLEERIVDLFRNLMKSAFVVERQPCMPMHPDRPLVIKTGVQFTTKVRLLVKFPELNYQLKIKVCIDKDSGDVAALRGSRKFNILGTNTKVMNMEESNNGSLSAEFKHLTLREQRCGNGGRANCDASLIVTEELHLITFETEVYHQGLKIDLETHSLPVVVISNICQMPNAWASILWYNMLTNNPKNVNFFTKPPIGTWDQVAEVLSWQFSSTTKRGLSIEQLTTLAEKLLGPGVNYSGCQITWAKFCKENMAGKGFSFWVWLDNIIDLVKKYILALWNEGYIMGFISKERERAILSTKPPGTFLLRFSESSKEGGVTFTWVEKDISGKTQIQSVEPYTKQQLNNMSFAEIIMGYKIMDATNILVSPLVYLYPDIPKEEAFGKYCRPESQEHPEADPGSAAPYLKTKFICVTPTTCSNTIDLPMSPRTLDSLMQFGNNGEGAEPSAGGQFESLTFDMDLTSECATSPM
partner: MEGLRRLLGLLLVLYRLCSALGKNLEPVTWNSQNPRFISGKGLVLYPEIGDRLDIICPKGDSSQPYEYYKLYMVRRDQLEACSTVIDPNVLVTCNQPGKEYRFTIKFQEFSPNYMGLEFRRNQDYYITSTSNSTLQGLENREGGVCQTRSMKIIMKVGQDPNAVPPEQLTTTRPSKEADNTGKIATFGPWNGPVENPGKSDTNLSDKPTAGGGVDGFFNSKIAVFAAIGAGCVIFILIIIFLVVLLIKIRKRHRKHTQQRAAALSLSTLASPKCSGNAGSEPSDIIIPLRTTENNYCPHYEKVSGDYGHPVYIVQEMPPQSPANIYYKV
B2: Ephrin-B1 (Xenopus laevis (African clawed frog)), O13097 (parent)
chain: B1 partner

Variants of: B1
Details: with efnb1_xenla efnb1, O13097

Row | effect of a mutation on the interaction | Variant
1 | disrupting interaction strength | R609L

Variants of: B2
Details: with stat3_rat Stat3, P52631

Row | effect of a mutation on the interaction | Variant
2 | decreasing interaction strength | Y296F;Y307F;Y312F
3 | decreasing interaction strength | Y296F;Y312F
